# ± gives the standard deviation of the averaged measurements.
# B1: library; numbered along this chain (parent)
# chain: MNIQIGELAKRTACPVVTIRFYEQEGLLPPPGRSRGNFRLYGEEHVERLQFIRHCRSLDMPLSDVRTLLSYRKRPDQDCGEVNMLLDEHIRQVESRIGALLELKHHLVELREACSGARPAQSCGILQGLSDCVCDTRGTTAHPSD
# Legend:
# [1] = variants of: B1; assay: sfGFP reporter fluorescence (15 h) (µM FITC); higher = higher leak; conditions: library round: Round 0; ligand: none
# How it was run: (§1)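 Linear PbrR templates were made by PCR, normalized to 5 nM with an Echo, and expressed in BL21 Star (DE3) PANOx-SP extract with the pPbrR-sfGFP reporter plasmid and 30 μg/mL GamS. Echo-assembled 1 μL reactions held 1 µM lead chloride, 30 µM zinc acetate or no metal and were incubated 15 hr at 30 °C. Endpoint sfGFP fluorescence was read on a Synergy Neo2 and expressed as µM FITC using standard curves. Up to three biological replicates were run.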
# [2] = variants of: B1; assay: sfGFP reporter fluorescence (15 h) (µM FITC); higher = stronger transcriptional activation; conditions: library round: Round 0
# How it was run: as §1
Variant,sfGFP reporter fluorescence [1],sfGFP reporter fluorescence ([2]; ligand: 1 µM Pb),sfGFP reporter fluorescence ([2]; ligand: 30 µM Zn)
R39N,0.06102 ± 0.00026,0.0597 ± 0.0015,0.0605
N83P,0.05772 ± 0.00026,0.0579 ± 0.001,0.0552 ± 0.0023
N83T,0.0607 ± 0.00078,0.0759 ± 0.0015,0.226 ± 0.047
N83M,0.06102 ± 0.00026,0.0768 ± 0.0023,0.06194 ± 0.00052
N83V,0.0577 ± 0.0034,0.07623 ± 0.00052,0.0588 ± 0.0013
N83S,0.0605 ± 0.0026,0.0775 ± 0.00078,0.333 ± 0.016
R96A,0.0564,0.07495 ± 0.00026,0.294 ± 0.0083
P143L,0.0563 ± 0.0018,0.0782 ± 0.0029,0.837 ± 0.046
N37A,0.0634 ± 0.001,0.0729 ± 0.0042,0.481 ± 0.007
C79T,0.0575 ± 0.0031,0.0592 ± 0.0018,0.0555 ± 0.0018
C79M,0.05974 ± 0.00052,0.06121 ± 0.00052,0.0592 ± 0.0013
C79A,0.05827 ± 0.00052,0.055 ± 0.0021,0.0585 ± 0.00078
C79Q,0.05901 ± 0.00052,0.05937 ± 0.00052,0.0566 ± 0.00078
C79P,0.057 ± 0.00078,0.05772 ± 0.00026,0.05351 ± 0.00052
M60L D64K G128M,3.44 ± 0.06,4.33 ± 0.25,4.46 ± 0.12
M60L K104V,0.255 ± 0.0057,1.1 ± 0.067,3.17 ± 0.1
D64A L68S,0.0623 ± 0.0021,0.0597 ± 0.0026,0.0803 ± 0.0036
L68Y,0.0634,0.0773 ± 0.0031,0.908 ± 0.05
L68D,0.0619 ± 0.001,0.061 ± 0.0013,0.0636 ± 0.0023
L68V,0.0603 ± 0.0018,0.0632 ± 0.0013,0.384 ± 0.035
E112C,0.0616 ± 0.001,0.0759 ± 0.0036,0.1508 ± 0.0013
E112S,0.0673 ± 0.00078,0.1083 ± 0.00078,1.9 ± 0.14
E112H,0.05882 ± 0.00026,0.077 ± 0.0057,0.424 ± 0.012

Variant,sfGFP reporter fluorescence [1],sfGFP reporter fluorescence ([2]; ligand: 1 µM Pb),sfGFP reporter fluorescence ([2]; ligand: 30 µM Zn)
E112D,0.0612 ± 0.0021,0.0722 ± 0.0026,0.565 ± 0.043
G6D,0.06377 ± 0.00052,0.06047 ± 0.00052,0.0621 ± 0.00078
G6E,0.0636 ± 0.0034,0.0605 ± 0.0015,0.0625 ± 0.0034
G6C,0.0601 ± 0.0026,0.05882 ± 0.00026,0.0621 ± 0.0018
K73A,0.0621 ± 0.0013,0.0676 ± 0.007,0.42 ± 0.15
L27F,0.0673 ± 0.0023,0.104 ± 0.0029,0.493 ± 0.035
L27Q,0.06432 ± 0.00026,0.0618 ± 0.0013,0.06285 ± 0.00026
L27D,0.0627 ± 0.0015,0.0603 ± 0.0018,0.0574 ± 0.0018
L27A,0.0632 ± 0.00078,0.05827 ± 0.00052,0.0733
K104V L107A,0.166 ± 0.0088,0.817 ± 0.042,2.18 ± 0.12
T67A,0.06047 ± 0.00052,0.0709 ± 0.0018,0.381 ± 0.063
C132A,0.0695 ± 0.0023,0.0832 ± 0.0073,1.63 ± 0.043
L28W,0.061 ± 0.0018,0.0821 ± 0.001,0.878 ± 0.019
L28M,0.0616,0.077 ± 0.0015,0.618 ± 0.023
L28E,0.06304 ± 0.00052,0.0649 ± 0.0015,0.0656
L28S,0.0627 ± 0.0015,0.0632 ± 0.0023,0.0715
I90V,0.059 ± 0.0036,0.064 ± 0.00078,0.583 ± 0.015
I90R,0.0658 ± 0.0049,0.125,0.97 ± 0.025
I90Q,0.05974 ± 0.00052,0.0737 ± 0.0042,0.637 ± 0.052
I90M,0.0588 ± 0.0018,0.0625 ± 0.0018,0.384 ± 0.013
E94K,0.0612 ± 0.0026,0.0793 ± 0.0034,0.824 ± 0.043
V46I,0.0548 ± 0.006,0.0711 ± 0.0062,0.831 ± 0.17
V46P,0.0537 ± 0.0023,0.0592 ± 0.0039,0.0641 ± 0.0042

Variant,sfGFP reporter fluorescence [1],sfGFP reporter fluorescence ([2]; ligand: 1 µM Pb),sfGFP reporter fluorescence ([2]; ligand: 30 µM Zn)
V46F,0.05626 ± 0.00026,0.0814 ± 0.0015,0.66 ± 0.074
E88A,0.061 ± 0.0034,0.0859 ± 0.0091,0.965 ± 0.07
G36W,0.0579 ± 0.0057,0.0601 ± 0.0062,0.104 ± 0.0042
G36T,0.06469 ± 0.00026,0.08943 ± 0.00052,0.866 ± 0.074
G36K,0.06304 ± 0.00052,0.09218 ± 0.00026,1.18 ± 0.099
Q24A,0.0559 ± 0.0029,0.05827 ± 0.00052,0.534 ± 0.052
C123F,0.0564 ± 0.0015,0.0577 ± 0.00078,0.0528 ± 0.0015
C123L,0.05589 ± 0.00026,0.0566 ± 0.0018,0.0542 ± 0.0021
C123N,0.0599 ± 0.0018,0.0561 ± 0.0015,0.05498 ± 0.00052
C123I,0.05479 ± 0.00026,0.0553 ± 0.001,0.0517 ± 0.0021
C123M,0.057 ± 0.0013,0.0577 ± 0.00078,0.0544 ± 0.0034
L107N,0.0546 ± 0.0047,0.0759 ± 0.0015,0.511 ± 0.027
E43R,0.0643 ± 0.00078,0.111 ± 0.025,2.24 ± 0.12
E43Y,0.0599 ± 0.00078,0.0924 ± 0.017,1.2 ± 0.058
E43T,0.06341 ± 0.00052,0.104 ± 0.0054,1.5 ± 0.14
R53A,0.0614 ± 0.0018,0.06652 ± 0.00026,0.487 ± 0.074
L85D,0.0577 ± 0.0013,0.0563 ± 0.0013,0.0537 ± 0.0013
L85S,0.059 ± 0.0021,0.059 ± 0.0015,0.0627
L58F,0.0592 ± 0.0018,0.0731 ± 0.0013,0.261 ± 0.027
L58R,0.06139 ± 0.00026,0.0651 ± 0.0029,0.0662 ± 0.00078
L58I,0.05443 ± 0.00026,0.0546 ± 0.001,0.05864 ± 0.00052
L58H,0.05901 ± 0.00052,0.0594 ± 0.0021,0.0656 ± 0.0036
E81A,0.0612 ± 0.001,0.0792 ± 0.0047,0.655 ± 0.13

Variant,sfGFP reporter fluorescence [1],sfGFP reporter fluorescence ([2]; ligand: 1 µM Pb),sfGFP reporter fluorescence ([2]; ligand: 30 µM Zn)
D131K,0.0706 ± 0.0029,0.127 ± 0.012,1.5 ± 0.34
G26A,0.06304 ± 0.00052,0.0724 ± 0.0023,0.512 ± 0.033
E109Y,0.06029 ± 0.00026,0.0832 ± 0.0031,1.46 ± 0.15
P61A,0.0665 ± 0.00078,0.108,1.22 ± 0.092
P61M,0.0682 ± 0.001,0.1424 ± 0.0013,0.714 ± 0.039
P61N,0.07825 ± 0.00026,0.13 ± 0.078,1.74 ± 0.049
P61I,0.0553 ± 0.0067,0.06414 ± 0.00052,0.112 ± 0.00026
M60T,0.0601 ± 0.001,0.0621 ± 0.00078,0.0645 ± 0.001
M60I,0.12 ± 0.0029,0.319 ± 0.03,2.58 ± 0.063
M60V,0.0715 ± 0.0015,0.1459 ± 0.001,1.05 ± 0.012
M60W,0.135 ± 0.0096,0.384 ± 0.026,0.926 ± 0.01
L107C G128I,1.34 ± 0.036,3.12 ± 0.11,4.14 ± 0.064
D64K L107C G128I,4.71 ± 0.58,4.78 ± 0.6,4.48 ± 0.43
R111N,0.0583,0.0684 ± 0.00078,0.391 ± 0.032
R111Y,0.0566 ± 0.0023,0.0651 ± 0.00078,0.28 ± 0.029
E7A,0.0552 ± 0.0018,0.0671 ± 0.001,1.07 ± 0.011
E7F,0.0601 ± 0.0015,0.0636 ± 0.0013,0.133 ± 0.012
F21K,0.0607 ± 0.0013,0.06157 ± 0.00052,0.0641
F21A,0.059,0.0541 ± 0.0013,0.0673 ± 0.0013
M60L D64K L107C,5.66 ± 0.2,5.25 ± 0.066,5.27 ± 0.24
